# Measured values taken from patent US9555076B2, “Neuregulin based methods and compositions for treating cardiovascular diseases” (Zensun (Shanghai) Science & Technology, Co., Ltd., priority 2002, dated 2017).
# “And” between values parts separate entries of the source, which are not always exact repeats. Equal entries are not always repeated.
# B1: rhNRG-1 β: Recombinant human neuregulin fragment of 61 amino acid (SEQ ID NO:4), 3 disulfide bonds, expressed in E. coli (protein, listed as Homo sapiens)
# chain: SHLVKCAEKEKTFCVNGGECFMVKDLSNPSRYLCKCPNEFTGDRCQNYVMASFYKAEELYQ
# modifications: disulfide (positions not given here)
# Assays:
# [1] = tested on: toxic myocarditis caused by Adriamycin in rat; test: Hemodynamics index, Adriamycin rat model; format: in vivo, SD rat; settings: rat, Adriamycin model
# Experimental: rhNRG-1 β was injected into the tail vein within 24 hours after the first injection of Adriamycin. During the experiment, animal survival was dynamically monitored, heart function indexes (maximal rate of pressure increase within left ventricle, […], maximal rate of pressure decrease within left ventricle, −dp/dt, systolic end pressure of left ventricle LVPmax, diastolic end pressure of left ventricle LVPmin) were monitored at the 5th week. Section was made from the heart tissue and pathological changes examined.
# Hemodynamics index such as carotid artery pressure, intra-ventricular pressure. dp/dt was measured with six lead physiology recorder. Major procedure: separate the right carotid artery, ligate its distal end and block its proximal end with arterial clamps, 20 G arteriovenous indwelling needle was inserted into the carotid artery, took out the medal stylet, loosened the artery clamps, push the plastic trocar further into appropriate depth, indwelled for 10 minutes, observed the wave style recorded by the physiology recorder, after it was stable, then recorded the carotid artery pressure and push the trocar further into the left ventricle, kept in place for 15 minutes, after it was stable, then recorded the dp/dt, −dp/dt, LVPmax and LVPmin.
# [2] = tested on: acute myocardial injury caused by viral (Coxsackie B3) infection in mice; test: Serum troponin I (cTnI), mice infected with Coxsackie B3 virus; format: in vivo, BALB/C mice
# Experimental: Severity of myocardial injury was evaluated through determination of the amount of serum cTnI release, with advantage of high specificity and high sensitivity when comparing with other traditional index such as CK, LDH and AST. Therefore, serum cTnI content determination was used as an objective index reflecting the severity of myocardial injury.
# At the 8th day of viral injection, body weight of the mice was measured and blood withdrawn from the orbit, serum separated, stored in −20° C. refrigerator and serum cTnI determination with luminous reaction carried out.
# [3] = tested on: congestive heart failure caused by inferior vena cava constriction in dog; test: Echocardiography (EF, FS, CO), inferior vena cava constriction (TIVCC) dog; format: in vivo, crossbred dog
# Experimental: […] dosage level of 1, 3 and 10 μg/kg respectively of rhNRG-1 β was diluted with preparation buffer solution (vehicle) to needed concentration, intravenous injection once everyday for consecutive 5 days.
# 3% pentobarbital sodium (30 mg/kg) was injected into the peripheral vein to anesthetize the dog, then trachea intubated. […] Bred for 1 week, echocardiography performed according to the amount of ascites, when EF reduced by about 20% or dilatation of the left heart by about 20%, stable low cardiac output congestive heart failure animal model was established. Then intravenous injection of the drug was carried out for consecutive 5 days.
# • Heart function index determination was carried out under anesthesia of the dog prior to the operation, prior to and 5-day after the drug administration. Major index included: • EF (Ejection Fraction): heart ejection fraction, i.e., ratio of difference between end diastolic volume of the ventricle (EDV) and end systolic volume of ventricle (ESV) and end diastolic volume of ventricle, being general index used for reflecting pumping function of ventricle; especially reflecting the systolic function; • FS: ventricular short axis shortening rate, being index reflecting contraction function of ventricle, • CO: cardiac output, i.e. blood volume ejected by the heart per minute. 6.3.3.2 Hemodynamic Index Determination
# [4] = tested on: congestive heart failure caused by inferior vena cava constriction in dog; test: Hemodynamic index by catheterization, TIVCC dog; format: in vivo, crossbred dog; settings: for L(−dp/dt) / L(+dp/dt): left ventricle
# Experimental: 7F trifid balloon floating catheter was inserted into the right jugular vein, right auricular pressure, right ventricular pressure, pulmonary pressure and pulmonary wedge pressure were recorded.
# 6F trifid balloon floating catheter was again inserted into left carotid artery, aorta pressure and left ventricle pressure were recorded with physiology recorder with the following major index: LVPmax, LVPmin, +dp/dt, and −dp/dt.
# [5] = Acute toxicity experiment, intravenous injection; format: in vivo
# [6] = 10 μg/kg iv qd × 10 d, (I), listed as rhNRG-1β
# [7] = 20 μg/kg iv qd × 10 d, (I), listed as rhNRG-1β
# [8] = 40 μg/kg iv qd × 10 d, (I), listed as rhNRG-1β
# [9] = 1 μg/kg group, prior to drug administration
# [10] = 1 μg/kg iv daily 5 days, after drug administration
# [11] = 3 μg/kg group, prior to drug administration
# [12] = 3 μg/kg iv daily 5 days, after drug administration
# [13] = 10 μg/kg group, prior to drug administration
# [14] = 10 μg/kg iv daily 5 days, after drug administration
# [15] = 1, 3 and 10 μg/kg iv daily 5 days
molecule,measurement,setting,value
B1,+dp/dt,"[1]; 10 μg/kg iv qd × 10 d, (I)",4875±636 mmHg/s and 4875 mmHg/s
same,LVPmax,"[1]; 10 μg/kg iv qd × 10 d, (I)",145±15.2 mmHg and 145 mmHg
same,LVPmin,"[1]; 10 μg/kg iv qd × 10 d, (I)",−24.5 mmHg
same,−dp/dt,"[1]; 10 μg/kg iv qd × 10 d, (I)",−3672±884 mmHg/s and −3672 mmHg/s
same,+dp/dt,[1]; [6],4875±636 mmHg/s
same,LVPmax,[1]; [6],145±15.2 mmHg
same,−dp/dt,[1]; [6],−3672±884 mmHg/s
same,+dp/dt,"[1]; 10 μg/kg iv qd × 10 d, (II)",4956 mmHg/s
same,LVPmax,"[1]; 10 μg/kg iv qd × 10 d, (II)",158.2 mmHg
same,LVPmin,"[1]; 10 μg/kg iv qd × 10 d, (II)",−22.4 mmHg
same,−dp/dt,"[1]; 10 μg/kg iv qd × 10 d, (II)",−3626 mmHg/s
same,+dp/dt,"[1]; 20 μg/kg iv qd × 10 d, (I)",6107±418 mmHg/s and 6107 mmHg/s
same,LVPmax,"[1]; 20 μg/kg iv qd × 10 d, (I)",156.1±17.7 mmHg and 156.1 mmHg
same,LVPmin,"[1]; 20 μg/kg iv qd × 10 d, (I)",−26.9 mmHg
same,−dp/dt,"[1]; 20 μg/kg iv qd × 10 d, (I)",−4323±457 mmHg/s and −4323 mmHg/s
same,+dp/dt,[1]; [7],6107±418 mmHg/s
same,LVPmax,[1]; [7],156.1±17.7 mmHg
same,−dp/dt,[1]; [7],−4323±457 mmHg/s
same,+dp/dt,"[1]; 20 μg/kg iv qd × 10 d, (II)",5833 mmHg/s
same,LVPmax,"[1]; 20 μg/kg iv qd × 10 d, (II)",157.7 mmHg
same,LVPmin,"[1]; 20 μg/kg iv qd × 10 d, (II)",−26.6 mmHg
same,−dp/dt,"[1]; 20 μg/kg iv qd × 10 d, (II)",−4345 mmHg/s
same,+dp/dt,"[1]; 40 μg/kg iv qd × 10 d, (I)",5954±689 mmHg/s and 5954 mmHg/s
same,LVPmax,"[1]; 40 μg/kg iv qd × 10 d, (I)",165.7±22.7 mmHg and 165.7 mmHg
same,LVPmin,"[1]; 40 μg/kg iv qd × 10 d, (I)",−27.4 mmHg
same,−dp/dt,"[1]; 40 μg/kg iv qd × 10 d, (I)",−4794±954 mmHg/s and −4794 mmHg/s
same,+dp/dt,[1]; [8],5954±689 mmHg/s
same,LVPmax,[1]; [8],165.7±22.7 mmHg
same,−dp/dt,[1]; [8],−4794±954 mmHg/s
same,+dp/dt,"[1]; 40 μg/kg iv qd × 10 d, (II)",6041 mmHg/s
same,LVPmax,"[1]; 40 μg/kg iv qd × 10 d, (II)",166.3 mmHg
same,LVPmin,"[1]; 40 μg/kg iv qd × 10 d, (II)",−22.2 mmHg
same,−dp/dt,"[1]; 40 μg/kg iv qd × 10 d, (II)",−4529 mmHg/s
same,cTnI Mean ± SD,"[2]; 7.5 μg/kg iv qd × 5, 8th day, (I)",29.05 ± 17.06 ng/mL
same,cTnI Mean ± SD,"[2]; 7.5 μg/kg iv qd × 5, 8th day, (I), listed as rhNRG-1β",29.05 ± 17.06 ng/mL
same,cTnI Mean ± SD,"[2]; 7.5 μg/kg iv qd × 5, 8th day, (II)",26.85 ± 15.20 ng/mL
same,cTnI Mean ± SD,"[2]; 15 μg/kg iv qd × 5, 8th day, (I)",19.43 ± 10.76 ng/mL
same,cTnI Mean ± SD,"[2]; 15 μg/kg iv qd × 5, 8th day, (I), listed as rhNRG-1β",19.43 ± 10.76 ng/mL
same,cTnI Mean ± SD,"[2]; 15 μg/kg iv qd × 5, 8th day, (II)",15.59 ± 14.94 ng/mL
same,cTnI Mean ± SD,"[2]; 30 μg/kg iv qd × 3, (I)",13.37 ± 9.53 ng/mL
same,cTnI Mean ± SD,"[2]; 30 μg/kg iv qd × 3, (II)",12.32 ± 18.36 ng/mL
same,cTnI Mean ± SD,"[2]; 30 μg/kg iv qd × 5, 8th day, (I)",7.98 ± 6.07 ng/mL
same,cTnI Mean ± SD,"[2]; 30 μg/kg iv qd × 5, 8th day, (I), listed as rhNRG-1β",7.98 ± 6.07 ng/mL
same,cTnI Mean ± SD,"[2]; 30 μg/kg iv qd × 5, 8th day, (II)",0.54 ± 0.53 ng/mL
same,cTnI Mean ± SD,"[2]; 30 μg/kg iv qd × 5, Example 5 (I)",1.06 ± 1.32 ng/mL
same,cTnI Mean ± SD,"[2]; 30 μg/kg iv qd × 5, Example 5 (I), listed as rhNRG-1β",1.06 ± 1.32 ng/mL
same,cTnI Mean ± SD,"[2]; 30 μg/kg iv qd × 5, Example 5 (II)",0.44 ± 0.24 ng/mL
same,cTnI Mean ± SD,"[2]; 30 μg/kg iv qd × 7, (I)",1.05 ± 1.2 ng/mL and 1.05 ± 1.20 ng/mL
same,cTnI Mean ± SD,"[2]; 30 μg/kg iv qd × 7, (I), listed as rhNRG-1β",1.05 ± 1.20 ng/mL
same,cTnI Mean ± SD,"[2]; 30 μg/kg iv qd × 7, (II)",0.51 ± 0.28 ng/mL
same,CO,"[3]; 1 μg/kg group, preoperation",4.2 ± 0.6 L/min
same,EF,"[3]; 1 μg/kg group, preoperation",82.8 ± 3.0%
same,FS,"[3]; 1 μg/kg group, preoperation",50.8 ± 4.0%
same,CO,[3]; [9],2.4 ± 0.5 L/min
same,EF,[3]; [9],57.7±10.9%
same,FS,[3]; [9],30.6±8.0%
same,CO,"[3]; 1 μg/kg group, prior to drug administration, listed as rhNRG-1β",2.4 ± 0.5 L/min
same,CO,[3]; [10],3.7 ± 0.8 L/min
same,EF,[3]; [10],70.4±8.4%
same,FS,[3]; [10],39.7±5.7%
same,CO,"[3]; 1 μg/kg iv daily 5 days, after drug administration, listed as rhNRG-1β",3.7 ± 0.8 L/min
same,CO,"[3]; 3 μg/kg group, preoperation",4.3 ± 0.8 L/min
same,EF,"[3]; 3 μg/kg group, preoperation",84.7 ± 2.8%
same,FS,"[3]; 3 μg/kg group, preoperation",51.7 ± 2.9%
same,CO,[3]; [11],2.1 ± 0.7 L/min
same,EF,[3]; [11],58.0 ± 8.3%
same,FS,[3]; [11],29.9 ± 6.4%
same,CO,[3]; [12],4.0 ± 0.9 L/min
same,EF,[3]; [12],74.7 ± 4.6 %
same,FS,[3]; [12],42.4 ± 4.4 %
same,CO,"[3]; 10 μg/kg group, preoperation",4.3 ± 0.6 L/min
same,EF,"[3]; 10 μg/kg group, preoperation",82.9 ± 2.6%
same,FS,"[3]; 10 μg/kg group, preoperation",50.5 ± 3.3%
same,CO,[3]; [13],1.9 ± 0.3 L/min
same,EF,[3]; [13],55.8 ± 10.0%
same,FS,[3]; [13],27.7 ± 5.6%
same,CO,[3]; [14],3.6 ± 0.7 L/min
same,EF,[3]; [14],74.7 ± 3.2 %
same,FS,[3]; [14],41.5 ± 3.1 %
same,effect on heart rate,[3]; [15],less effect on heart rate
same,LVPmax,[4]; 1 μg/kg iv daily 5 days,102.12 ± 12.42 mmHg
same,LVPmin,[4]; 1 μg/kg iv daily 5 days,0.59 ± 3.05 mmHg
same,LVPmax,[4]; 3 μg/kg iv daily 5 days,114.68 ± 17.12 mmHg
same,LVPmin,[4]; 3 μg/kg iv daily 5 days,−1.12 ± 1.34 mmHg
same,LVPmax,[4]; 10 μg/kg iv daily 5 days,122.87 ± 17.37 mmHg
same,LVPmin,[4]; 10 μg/kg iv daily 5 days,−0.69 ± 1.05 mmHg
same,effect on the right ventricle,[4]; [15],not apparent
same,L(−dp/dt),[4]; 1 μg/kg iv daily 5 days,−2933 ± 613.44 mmHg/s
same,L(+dp/dt),[4]; 3 μg/kg iv daily 5 days,5000.45 ± 1535.88 mmHg/s
same,L(−dp/dt),[4]; 3 μg/kg iv daily 5 days,−3249.52 ± 973.32 mmHg/s
same,L(+dp/dt),[4]; 10 μg/kg iv daily 5 days,5104.88 ± 1332.05 mmHg/s
same,L(−dp/dt),[4]; 10 μg/kg iv daily 5 days,−3658.34 ± 1390.97 mmHg/s
same,MTD of acute toxicity experiment,[5],35 mg/kg
